Our source for the koff and Kd values is article PMC12860359 (2025).

Test [1] deals with T1, MBP-HA Rap1B WT (human, UniProt P61224-1 1-184).
T1 chain: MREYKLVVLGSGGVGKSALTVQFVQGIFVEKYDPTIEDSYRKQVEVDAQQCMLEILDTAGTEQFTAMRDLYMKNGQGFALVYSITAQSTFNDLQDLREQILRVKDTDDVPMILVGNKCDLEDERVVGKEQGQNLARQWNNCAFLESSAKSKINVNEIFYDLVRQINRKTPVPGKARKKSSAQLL
Nature of the test: BLI; GTPγS-bound Rap1B. On the technique in general: Biolayer interferometry detects binding as a change in optical thickness at a sensor tip.

In test [2] the target is T1, MBP-HA Rap1B WT. The test is described as follows: BLI; GDP-bound Rap1B.
For test [3], the target named is T1, MBP-HA Rap1B WT. Nature of the test: BLI; GTPγS-bound Rap1B.

Positions count from the first letter of the chain named.

B1: VHH-hFcS A47 (Fc fusion)
chain: EVQLQASGGGFVQPGGSLRLSCAASGFTSKNTIMGWFRQAPGKEREFVSAISSAPGYWEYYADSVKGRFTISRDNSKNTVYLQMNSLRAEDTATYYCAAPINQAPGRPIRSDQYWGQGTQVTVSS
For B1, the koff in test [1] was 0.000574 s⁻¹. In test [2], this molecule showed a Kd of 722 nM.

B2: VHH-hFcS B14 (Fc fusion)
chain: B1 chain with F37Y, F47L
Molecule B2 returned a koff in test [1] of 0.00104 s⁻¹. In addition, the Kd in test [2] was 295 nM; in test [3], 25.8 nM.

B3: VHH-hFcS B89 (Fc fusion)
chain: B1 chain with S111W
In test [2], B3 yielded an equilibrium dissociation constant (Kd) of 20.2 nM.

Usually koff stands for the first-order rate constant of dissociation. As usually defined, the Kd is the constant that tells how readily two partners part at equilibrium.
